The values that follow come from patent US20250115681A1 (WESTLAKE UNIVERSITY, published 2025).

Where no end group is shown, it is not given here. [ ]: non-standard residue; d: D form. The star is where a group is joined. Biotin = O=C1N[C@H]2[C@H](CS[C@H]2CCCCC(=O)*)N1

The target of the assay is T1, AALPET*G peptide with N-terminal biotinylation.
T1 construct: Synthetic sortase substrate peptide
T1 peptide: Biotin-AALPET[2‑hydroxyacetic acid]G
The assay is described as follows: western blot of in vitro reaction product bands.

B1: mgSrtA (Ca2+-dependent) (enzyme)
chain: KPHIDNYLHDKDKDEKIEQYDKNVKEQASKDKKQQAKPQIPKDKSKVAGYIEIPDADIKEPVYPGPATREQLNRGVSFAEENESLDDQNISIAGHTFIGRPNYQFTNLKAAKKGSMVYFKVGNETRKYKMTSIRNVKPTAVGVLDEQKGKDKQLTLITCDDLNRETGVWETRKILVATEVK
notes: Engineered variant of wild-type sortase A, expressed in E. coli BL21 (DE3) with an N-terminal 6xHis tag; also called Ca^2+-dependent mgSrtA; not shown: N-terminal 6xHis tag from the pET-28a backbone
B1: the binding result is reported as “binds”.
